In patent US20230167182A1 (BIOSION, published 2023) one finds EC50 and IC50 data, which are given here for eight molecules.

The target in assay [1] is T1, human IL6R-Fc protein (human, biotin-labeled in the ELISAs (sites not given)).
T1 construct: In house made; also called biotin-labeled human IL6R-Fc protein
Description: capture ELISA: antibody captured on anti-IgG F(ab')2 coated plate, then biotin-labeled human IL6R-Fc, streptavidin-HRP. How it is done:
For the capture ELISA, 96-well micro plates were coated with 2 μg/ml AffiniPure Goat Anti-Mouse IgG, F(ab′)₂ fragment specific (Jackson ImmunoResearch Laboratories, Inc., Cat #115-005-072) in PBS, 100 μl/well, and incubated for 2 hours at 37° C. Plates were washed once with wash buffer (PBS+0.05% v/v Tween-20, PBST) and then blocked with 200 μl/well blocking buffer (5% w/v non-fatty milk in PBST) overnight at 4° C. […] Plates containing captured anti-IL6R antibodies were incubated with biotin-labeled human IL6R-Fc protein (prepared in house, SEQ ID NO: 43, 39.5 ng/ml in 2.5% w/v non-fatty milk in PBST, 100 μl/well) for 40 minutes at 37° C., washed 4 times, and incubated with streptavidin conjugated HRP (1:10000 dilution in PBST, Jackson ImmunoResearch Laboratories, Inc., Cat #016-030-084, 100 μl/well) for 40 minutes at 37° C. After a final wash, plates were incubated with 100 μl/well ELISA substrate TMB (InnoReagents, Cat #TMB-S-002). The reaction was stopped 3-10 minutes later at room temperature with 50 μl/well 1M H₂SO₄, and the absorbance of each well was read on a microplate reader using dual wavelength mode at 450 nm for TMB and 630 nm as the reference wavelength. Then the OD (450-630) values were plotted against antibody concentration. Data was analyzed using Graphpad Prism software and EC₅₀ values were reported.
For the capture ELISA, AffiniPure Goat Anti-Human IgG, F(ab′)₂ fragment specific (Jackson Immuno Research, Cat #109-005-097) was used instead of AffiniPure Goat Anti-Mouse IgG, F(ab′)₂ fragment specific, 100 μl/well.
Target sequence in this assay (chain, as listed by the source limits assumed): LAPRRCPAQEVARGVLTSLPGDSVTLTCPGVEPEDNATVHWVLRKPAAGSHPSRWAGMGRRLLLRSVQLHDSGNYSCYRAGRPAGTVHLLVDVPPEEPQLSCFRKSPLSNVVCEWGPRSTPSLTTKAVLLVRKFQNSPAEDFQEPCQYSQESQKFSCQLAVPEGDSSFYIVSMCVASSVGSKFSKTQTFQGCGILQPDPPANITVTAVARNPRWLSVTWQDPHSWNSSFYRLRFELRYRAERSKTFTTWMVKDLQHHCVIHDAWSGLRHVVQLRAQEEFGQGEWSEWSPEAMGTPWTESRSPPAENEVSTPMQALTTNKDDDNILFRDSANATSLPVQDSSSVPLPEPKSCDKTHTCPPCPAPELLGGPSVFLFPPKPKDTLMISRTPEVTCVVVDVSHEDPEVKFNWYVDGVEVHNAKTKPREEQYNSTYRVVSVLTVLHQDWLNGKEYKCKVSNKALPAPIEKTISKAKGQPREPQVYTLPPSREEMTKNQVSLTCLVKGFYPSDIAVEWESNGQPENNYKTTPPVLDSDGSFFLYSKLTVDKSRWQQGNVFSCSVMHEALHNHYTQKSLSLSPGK

Assay [2] has as its target T1, human IL6R-Fc protein. Description: benchmark blocking ELISA: antibody pre-incubated with biotin-labeled human IL6R-Fc, added to plate-coated Tocilizumab (competitor: Tocilizumab). Here is the method:
ELISA plates were washed once with wash buffer (PBS+0.05% v/v Tween-20, PBST) and then blocked with 200 μl/well blocking buffer (5% w/v non-fatty milk in PBST) overnight at 4° C.
The next day, the anti-IL6R antibodies of the disclosure or controls were diluted with biotin labeled human IL6R-Fc protein (SEQ ID NO: 43, 13.6 ng/ml in 2.5% w/v non-fatty milk in PBST), starting at 100 nM with a 5-fold serial dilution, and incubated at room temperature for 40 minutes. […] After incubation at 37° C. for 40 minutes, plates were washed 4 times using wash buffer. Then streptavidin conjugated HRP was added, and the plates were incubated for 40 minutes at 37° C. The plates were finally washed using wash buffer, and added with TMB. The reaction was stopped using 1M […], and the absorbance was read on a microplate reader using dual wavelength mode with 450 nm for TMB and 630 nm as the reference wavelength. The OD (450-630) values were plotted against antibody concentration. Data was analyzed using Graphpad Prism software and IC₅₀ values were reported.

Assay [3] concerns the target T2, human IL6R expressed on cell surface (human, UniProt P08887 20-468).
T2 construct: whole, on cells; also called cell surface human IL6R; U266 cells expressing human IL6R
T2 sequence (looked up): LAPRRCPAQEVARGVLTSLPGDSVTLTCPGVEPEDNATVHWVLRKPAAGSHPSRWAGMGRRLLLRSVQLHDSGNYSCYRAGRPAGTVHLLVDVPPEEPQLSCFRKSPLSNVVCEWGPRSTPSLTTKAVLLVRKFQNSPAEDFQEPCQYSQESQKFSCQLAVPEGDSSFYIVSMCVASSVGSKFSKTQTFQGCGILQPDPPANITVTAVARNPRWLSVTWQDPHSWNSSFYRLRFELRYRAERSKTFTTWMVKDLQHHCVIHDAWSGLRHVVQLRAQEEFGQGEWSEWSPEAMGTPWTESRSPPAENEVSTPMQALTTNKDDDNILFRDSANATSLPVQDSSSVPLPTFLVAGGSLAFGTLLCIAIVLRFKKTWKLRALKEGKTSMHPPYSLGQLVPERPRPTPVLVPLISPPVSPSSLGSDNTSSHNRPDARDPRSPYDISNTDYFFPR
Description: cell-based binding FACS on U266 cells. Here is the method: The binding activities of the mouse anti-IL6R antibodies to IL6R expressed on cell surface were tested by flow cytometry (FACS). Briefly, human myeloma cells U266 (ATCC® TIB-196™) were harvested from cell culture flasks, washed twice and resuspended in phosphate buffered saline (PBS) containing 2% v/v Fetal Bovine Serum (FACS buffer). 2×10⁵ U266 cells per well were incubated in 96 well-plates with 100 μl of the anti-IL6R antibodies or controls at various concentrations (starting at 40 nM with a 3-fold serial dilution in FACS buffer) for 40 minutes on ice. Cells were washed twice with FACS buffer, and added with 100 μL/well R-Phycoerythrin AffiniPure F(ab′)₂ Fragment Goat Anti-Mouse IgG (H+L) (1:1000 dilution in FACS buffer, Jackson ImmunoResearch Laboratories, Inc., Cat #115-116-146). Following an incubation of 40 minutes at 4° C. in dark, cells were washed three times and resuspended in FACS buffer. Fluorescence was measured using a Becton Dickinson FACS Canto II-HTS equipment. Data was analyzed using Graphpad Prism software and EC₅₀ values were reported.

In assay [4] the target is T1, human IL6R-Fc protein. Description: ligand blocking ELISA: antibody pre-incubated with biotin-labeled human IL6R-Fc, added to plate-coated human IL6 (blocked ligand: human IL6). How it is done: (§1) The next day, anti-IL6R antibodies or controls were diluted with biotin labeled human IL6R-Fc protein (prepared in house, SEQ ID NO: 43, 39.5 ng/ml in 2.5% w/v non-fatty milk in PBST), starting at 100 nM with a 4-fold serial dilution, and incubated at room temperature for 40 minutes. […] Plates were washed for 4 times using wash buffer, and added and incubated with 100 μl/well of streptavidin conjugated HRP (1:10000 dilution in PBST buffer, Jackson ImmunoResearch Laboratories, Inc., Cat #016-030-084) for 40 minutes at 37° C. Plates were washed again using wash buffer. Finally, TMB was added and the reaction was stopped using 1M H₂SO₄. The absorbance was read on a microplate reader using dual wavelength mode with 450 nm for TMB and 630 nm as the reference wavelength, and then the OD (450-630) values were plotted against antibody concentration. Data was analyzed using Graphpad Prism software and IC₅₀ values were reported.

The target of assay [5] is T1, human IL6R-Fc protein. The description is as above. How it is done:
as §1
This is another data set of the same source.

Substitutions are numbered along the chain they refer to.

B1: Chimeric 1H7 (antibody, human IgG1, kappa, V domains shown)
VH: QVQLQQPGTELVKPGASVKLSCKASGYTFTNYWMHWVKQRPGQGLDWIGEINPTNGRTNYNENFKSKATLTVDKSSSTAYMQLSSLTSEDSAVYYCARLNTHYVFDSWGQGTTLTLSS
VL: EIVLTQSPTTLAASPGEKITFTCSVSSSISSNYLHWYQQKPGFSPKLLISRTSTLASGVPARFSGSGSGTSYSLTIGTMEAEDVATYYCQQGSGIPFTFGSGTKLELKR
notes: Mouse variable regions on human IgG1 / human kappa constant regions; also called chimeric antibody 1H7
Molecule B1 yielded an EC50 in assay [1] of 0.078 nM.

B2: mouse anti-IL6R monoclonal antibody 1F7 (antibody, V domains shown)
VH: QVQLQQPGAELVKPGASVKLSCKASDYTFTSYWMHWVKQRPGQGLEWIGEINPSNGRTNYNEKFKNKATLTVDKSSSTAYVQLYSLTSEDSAVYYCARLSIHYVFDYWGQGTTLTVSS
VL: ELVLTQSPTTMAASPGEKITFTCSASSSISSNYLHWYQQKPGFSPKLLISGTSNLASGVPPRFSGSGSGTSYSLTIVTMEAEDVATYYCQQGSGIPFTFGSGTKLEIK
notes: Mouse hybridoma mAb
Turning to B2, in assay [2], the IC50 stood at 0.311 nM.

B3: mouse anti-IL6R monoclonal antibody 1A3 (antibody, V domains shown)
VH: QVQLQQPGAELVKPGASVKLSCKASGYTFTSYWMHWVKQRPAQGLEWIGEINPSNGRTNFNEKFKTKATLTVDKSSNTAYMQLSSLTSEDSAVYSCLRLNTHYVFDYWGQGTTLTVSS
VL: B2 VL with L2I, F21I, G51R, P61T, V77G, E82G
notes: Mouse hybridoma mAb purified on Protein A
In turn, B3 showed an EC50 in assay [3] of 0.229 nM. Besides, the IC50 in assay [4] was determined as 0.807 nM.

B4: mouse anti-IL6R monoclonal antibody 1D4 (antibody, V domains shown)
VH: B1 VH with T9A, N31S, Q39V, D46E, N63D, D73N, K74S, S107Y, L116V
VL: B2 VL with L2I, T10I, M11L, A25V, S50Y, G51R, P61A, V77G
notes: Mouse hybridoma mAb
In the case of B4, the IC50 in assay [2] is 0.467 nM.

B5: mouse anti-IL6R monoclonal antibody 1H7 (antibody, V domains shown)
VH: B1 VH
VL: B2 VL with L2I, M11L, A25V, G51R, N54T, P61A, V77G, I107L
notes: Mouse hybridoma mAb
B5 yielded an EC50 in assay [1] of 0.0553 nM. The molecule further returned an IC50 in assay [5] of 0.601 nM.

B6: mouse anti-IL6R monoclonal antibody 1B5 (antibody, V domains shown)
VH: B1 VH with T9A, N31S, D46E, T54S, S107Y, L116V
VL: B2 VL with L2I, T10I, M11L, A25V, S50Y, G51R, P61A, V77G
notes: Mouse hybridoma mAb
B6: the EC50 came out at 0.204 nM in assay [3] and 0.0627 nM in assay [1]. In assay [4], it took 0.697 nM to reach half-maximal inhibition (IC50).

B7: mouse anti-IL6R monoclonal antibody 1H9 (antibody, V domains shown)
VH: QVQLQQPGAELVKPGASVKLSCKASGYTFTSYWMHWVKLRPGQGLEWIGEINPTNGRTNYYEKFKNRATLTADKSSSTAYMQLSSLTFEDSAVYFCAKFHYSRWYFDVWGTGTTVTVSS
VL: DIVMTQSQKFMSTSVGDRVSITCKASQNVGTAVVWYQQKPGQSPKLLINPASNRYTGVPDRFTGSGSGTDFTLTISNMQSEDLADYFCQQYSSYPLTFGAGTKLELK
notes: Mouse hybridoma mAb
B7 came in with an IC50 in assay [5] of 1.05 nM. This lies in the single-digit nanomolar range.

B8: Tocilizumab (antibody, human IgG1, kappa, V domains shown)
VH: QVQLQESGPGLVRPSQTLSLTCTVSGYSITSDHAWSWVRQPPGRGLEWIGYISYSGITTYNPSLKSRVTMLRDTSKNQFSLRLSSVTAADTAVYYCARSLARTTAMDYWGQGSLVTVSS
VL: DIQMTQSPSSLSASVGDRVTITCRASQDISSYLNWYQQKPGKAPKLLIYYTSRLHSGVPSRFSGSGSGTDFTFTISSLQPEDIATYYCQQGNTLPYTFGQGTKVEIKR
notes: In house made; also called benchmark; Actemra
For B8, the results for the EC50 in assay [3] and in assay [1] were 1.7 nM and 0.191 nM, respectively. Also, the IC50 turned out to be 2.58 nM in assay [2], 2.54 nM in assay [5] and 2.33 nM in assay [4].
